In patent US20050079613A1, “Downregulation of cell surface glycoproteins by a family of human ubiquitin ligases” (Oregon Health & Science University, priority 2002, published 2005):
Entries after “also recorded” stand apart in the source; their conditions may differ.

Legend:
Format in all cases: cell-based, human
[1] = tested on: Fas (CD95), MHC I, HLA-A2.1, CD4, transferrin receptor, B7.1; experiment: Surface glycoprotein panel on transfected HeLa cells, flow cytometry; conditions: HeLa cells transfected with MARCH plasmid
Experimental: (§1) Flow cytometry. Cells were removed from tissue culture dishes with 0.05% Trypsin-EDTA (Invitrogen), washed with ice-cold PBS, and incubated with appropriate antibody for 30 minutes at 4° C. The cells were washed with ice-cold PBS and either resuspended in ice-cold PBS or incubated with PE-conjugated anti-mouse secondary antibody (DAKO) and washed again before analysis with a BD Biosciences (San Jose, Calif.) FACScalibur flow cytometer.
(§2) The ability to downregulate MHC I is common to KSHV-K3, KSHV-K5, MHV68-K3 and MV-M153R (Coscoy and Ganem, 2000, supra; Guerin et al., 2002, supra; Ishido et al., 2000b supra; Stevenson et al., 2000, supra). Additional substrates are ICAM-1 and B7.2 (but not B7.1) for KSHV-K5, as well as CD95 and CD4 for M153R (Coscoy and Ganem, 2001, supra; Guerin et al., 2002, supra; Ishido et al., 2000a, supra; Mansouri et al., 2003, supra). Since only low copy numbers were detected in HeLa cells for transcripts corresponding to each of the MARCH-proteins (FIG. 7C, and data not shown), HeLa cells were transfected with expression plasmids for MARCH-I, II, III, IV, V and VIII. Surface expression of selected glycoproteins was monitored upon transfection. […] Surface expression of the respective markers was analyzed by flow cytometry. […]

transferrin receptor = experiment: Surface expression of transferrin receptor on transfected HeLa cells, flow cytometry; conditions: HeLa cells transfected with MARCH plasmid and GFP, 24 h post-transfection
Experimental: as §1
Cells were transfected with appropriate plasmids as well as GFP to track transfection efficiency. […]
as §2, with “Additional substrates are ICAM-1 and B7.2 (but not B7.1) for KSHV-K5, as well as CD95 and CD4 for M153R (Coscoy and Ganem, 2001, supra; Guerin et al., 2002, supra; Ishido et al., 2000a, supra; Mansouri et al., 2003, supra).” left out

HLA class I (MHC I) = experiment: Surface expression of endogenous MHC I on transfected HeLa cells, flow cytometry; conditions: HeLa cells transfected with MARCH plasmid and GFP, 24 h post-transfection
Experimental: as §1
(§3) The ability to downregulate MHC I is common to KSHV-K3, KSHV-K5, MHV68-K3 and MV-M153R (Coscoy and Ganem, 2000, supra; Guerin et al., 2002, supra; Ishido et al., 2000b supra; Stevenson et al., 2000, supra). Additional substrates are ICAM-1 and B7.2 (but not B7.1) for KSHV-K5, as well as CD95 and CD4 for M153R (Coscoy and Ganem, 2001, supra; Guerin et al., 2002, supra; Ishido et al., 2000a, supra; Mansouri et al., 2003, supra). Since only low copy numbers were detected in HeLa cells for transcripts corresponding to each of the MARCH-proteins (FIG. 7C, and data not shown), HeLa cells were transfected with expression plasmids for MARCH-I, II, III, IV, V and VIII. Surface expression of selected glycoproteins was monitored upon transfection. The following known substrates for viral K3-family members were tested: Fas (CD95) and HLA class I (MHC I), both of which are endogenously expressed in HeLa cells, as well as transfected HLA-A2.1 or CD4. […] Surface expression of the respective markers was analyzed by flow cytometry. GFP was used to identify transfected cells.
With regards to whether MHC I downregulation by MARCH-IV was only observed at very high expression levels, since the viral immune evasion genes seem to be dedicated to MHC I downregulation, MHC I expression was compared at different expression levels of MARCH-IV or KSHV-K5 by taking advantage of the tetracycline-regulatable system to partially express either protein (Gossen, M. and H. Bujard, Proc. Natl. Acad. Sci. USA 89:5547-5551, 1992). Tet-off HeLa cells were transfected with either MARCH-IV or with KSHV-K5 in the presence of increasing amounts of tetracycline to shut off transcription. […]

HLA-A2.1 = experiment: Surface expression of co-transfected HLA-A2.1 constructs on HeLa cells, flow cytometry
Experimental: as §1, §3
The most likely targets for ubiquitination on transmembrane glycoproteins are lysines in the cytoplasmic tail. To examine the role of lysines for MHC I and CD4 downregulation by MARCH-IV, a panel of constructs derived from the human MHC I molecule HLA-A2.1 and a lysine-deleted version of CD4 (Mansouri et al., 2003, supra) were used. In addition to MARCH-IV, MARCH-VIII was included in this analysis since it reduced HLA-A2.1 surface expression (FIG. 10A). […] To rule out the possibility that these mutations changed the target molecules in such a way that they are no longer recognized by MARCH-IV or VIII, a lysine residue into a HA-tag at the carboxyterminal end of HLA-A2.1 was introduced.

Molecule | reduction in surface levels of any of the glycoproteins of the panel [1] | surface expression of transferrin receptor (TfR) (transferrin receptor) | surface expression of MHC I (HLA class I (MHC I)) | downregulation of HLA-A2.1 with a lysine re-introduced into the C-terminal HA-tag (HLA-A2.1; HeLa cells) | surface expression of transfected HLA-A2.1 (HLA-A2.1; HeLa cells co-transfected with HLA-A2.1 and MARCH plasmid) | downregulation of HLA-A2.1 with lysines removed from the tail (HLA-A2.1; HeLa cells, lysine-less HLA-A2.1 construct)
MARCH-V: four-transmembrane human RING-CH protein, SEQ ID NOS:47 and 58 (protein, listed as Homo sapiens) MPDQALQQMLDRSCWVCFATDEDDRTAEWVRPCRCRGSTKWVHQACLQRWVDEKQRGNSTARVACPQCNAEYLIVFPKLGPVVYVLDLADRLISKACPFAAAGIMVGSIYWTAVTYGAVTVMQVVGHKEGLDVMERADPLFLLIGLPTIPVMLILGKMIRWEDYVLRLWRKYSNKLQILNSIFPGIGCPVPRIPAEANPLADHVSATRILCGALVFPTIATIVGKLMFSSVNSNLQRTILGGIAFVAIKGAFKVYFKQQQYLRQAHRKILNYPEQEEA | No reduction in surface levels | – | – | – | – | –
MARCH-VIII: human membrane-associated RING-CH ubiquitin ligase, SEQ ID NOS:53 and 61 (protein, listed as Homo sapiens) MSMPLHQISAIPSQDAISARVYRSKTKEKEREEQNEKTLGHFMSHSSNISKAGSPPSASAPAPVSSFSRTSITPSSQDICRICHCEGDDESPLITPCHCTGSLHFVHQACLQQWIKSSDTRCCELCKYEFIMETKLKPLRKWEKLQMTSSERRKIMCSVTFHVIAITCVVWSLYVLIDRTAEEIKQGQATGILEWPFWTKLVVVAIGFTGGLLFMYVQCKVYVQLWKRLKAYNRVIYVQNCPETSKKNIFEKSPLTEPNFENKHGHGICHSDTNSSCCTEPEDTGAEIIHV | – | almost complete elimination; also recorded: down regulated | reduced the surface expression of MHC I; also recorded: down regulated | restored downregulation | reduced | resistant
MARCH-III: human membrane-associated RING-CH ubiquitin ligase, SEQ ID NOS:43 and 56 (protein, listed as Homo sapiens) MTTSRCSHLPEVLPDCTSSAAPVVKTVEDCGSLVNGQPQYVMQVSAKDGQLLSTVVRTLATQSPFNDRPMCRICHEGSSQEDLLSPCECTGTLGTIHRSCLEHWLSSSNTSYCELCHFRFAVERKPRPLVEWLRNPGPQHEKRTLFGDMVCFLFITPLATISGWLCLRGAVDHLHFSSRLEAVGLIALTVALFTIYLFWTLVSFRYHCRLYNEWRRTNQRVILLIPKSVNVPSNQPSLLGLHSVKRNSKETVV | No reduction in surface levels | – | – | – | – | –
